For 17 molecules, Kd, koff and kon results are on record in US20240368267A1 (KODIAK SCIENCES, published 2024).

The target of the assay is T1, human IL-6 (human, UniProt P05231 30-212).
T1 construct: also called interleukin-6
Nature of the assay: SPR (Biacore T200), antibody from cell supernatant captured on Protein A, IL-6 flowed over, 37 C. On the procedure: Those four positions were selected based on their tolerance for mutations as observed in bacterial and mammalian screens. […] These cultures were centrifuged and supernatants containing secreted antibodies were harvested and diluted in HBS-EP+ running buffer (1:20 ratio).
Antibodies were captured on a Protein A chip (GE) by injecting 1:20 cell supernatant dilutions at 10 μL/min for 60 seconds. […] The sensor chip was regenerated by a 60 seconds injection of 10 mM Glycine pH 1.7 at the flow rate of […]. […] For this setup, 1 μg/mL of purified antibody was injected over a Protein A chip at 10 μL/min for 25 seconds. […] The sensor chip was regenerated by a 60 seconds injection of 10 mM Glycine pH 1.7 at flow rate of 50 μL/min. Data analysis for supernatant and purified samples were performed using BIAevaluation software (GE). All sensorgrams were double reference subtracted and fit using a 1:1 Langmuir binding model.

T1 sequence (P05231 30-212 limits assumed): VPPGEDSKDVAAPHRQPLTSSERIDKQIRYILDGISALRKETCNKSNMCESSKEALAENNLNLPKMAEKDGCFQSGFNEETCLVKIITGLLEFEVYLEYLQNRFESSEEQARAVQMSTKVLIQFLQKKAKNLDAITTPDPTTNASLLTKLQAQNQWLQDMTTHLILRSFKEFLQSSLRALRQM

B1: anti-IL-6 antibody, heavy chain T63S, G66D / light chain WT (antibody, human IgG1, V domains shown)
VH: EVQLVESGGGLVQPGGSLRLSCAASGFTFSPFAMSWVRQAPGKGLEWVAKISPGGSWTYYSDSVTDRFTFSLDTSKSTAYLQMNSLRAEDTAVYYCARQLWGYYALDIWGQGTLVTVSS
VL: DIQLTQSPSSLSASVGDRVTITCSASISVSYMYWYQQKPGKAPKLLIYDMSNLASGVPSRFSGSGSGTDFTLTISSLQPEDFATYYCMQWSGYPYTFGQGTKVEIK
notes: Derived as m2; Engineered human IgG1
Take B1: the Kd is 0.184 nM, the koff is 0.000464 s⁻¹ and the kon turned out to be 2.52e+06 M⁻¹ s⁻¹.

B2: anti-IL-6 antibody, heavy chain T65A, G66D / light chain WT (antibody, human IgG1, V domains shown)
VH: EVQLVESGGGLVQPGGSLRLSCAASGFTFSPFAMSWVRQAPGKGLEWVAKISPGGSWTYYSDTVADRFTFSLDTSKSTAYLQMNSLRAEDTAVYYCARQLWGYYALDIWGQGTLVTVSS
VL: DIQLTQSPSSLSASVGDRVTITCSASISVSYMYWYQQKPGKAPKLLIYDMSNLASGVPSRFSGSGSGTDFTLTISSLQPEDFATYYCMQWSGYPYTFGQGTKVEIK
notes: as for B1
B2 displayed a Kd of 0.222 nM, a koff of 0.000364 s⁻¹ and an on-rate (kon) of 1.64e+06 M⁻¹ s⁻¹.

B3: anti-IL-6 antibody, heavy chain T65H, G66D / light chain WT (antibody, human IgG1, V domains shown)
VH: EVQLVESGGGLVQPGGSLRLSCAASGFTFSPFAMSWVRQAPGKGLEWVAKISPGGSWTYYSDTVHDRFTFSLDTSKSTAYLQMNSLRAEDTAVYYCARQLWGYYALDIWGQGTLVTVSS
VL: DIQLTQSPSSLSASVGDRVTITCSASISVSYMYWYQQKPGKAPKLLIYDMSNLASGVPSRFSGSGSGTDFTLTISSLQPEDFATYYCMQWSGYPYTFGQGTKVEIK
notes: as for B1
As for B3, the affinity, expressed as Kd, was 0.219 nM; the koff turned out to be 0.000356 s⁻¹; the kon stood at 1.63e+06 M⁻¹ s⁻¹.

B4: anti-IL-6 antibody, heavy chain T65K, G66D / light chain WT (antibody, human IgG1, V domains shown)
VH: EVQLVESGGGLVQPGGSLRLSCAASGFTFSPFAMSWVRQAPGKGLEWVAKISPGGSWTYYSDTVKDRFTFSLDTSKSTAYLQMNSLRAEDTAVYYCARQLWGYYALDIWGQGTLVTVSS
VL: DIQLTQSPSSLSASVGDRVTITCSASISVSYMYWYQQKPGKAPKLLIYDMSNLASGVPSRFSGSGSGTDFTLTISSLQPEDFATYYCMQWSGYPYTFGQGTKVEIK
notes: as for B1
Take B4: the Kd is 0.262 nM, the koff worked out at 0.000412 s⁻¹ and the kon came to 1.57e+06 M⁻¹ s⁻¹.

B5: anti-IL-6 antibody, heavy chain T65S, G66D / light chain WT (antibody, human IgG1, V domains shown)
VH: EVQLVESGGGLVQPGGSLRLSCAASGFTFSPFAMSWVRQAPGKGLEWVAKISPGGSWTYYSDTVSDRFTFSLDTSKSTAYLQMNSLRAEDTAVYYCARQLWGYYALDIWGQGTLVTVSS
VL: DIQLTQSPSSLSASVGDRVTITCSASISVSYMYWYQQKPGKAPKLLIYDMSNLASGVPSRFSGSGSGTDFTLTISSLQPEDFATYYCMQWSGYPYTFGQGTKVEIK
notes: as for B1
Regarding B5, binding was put at a Kd of 0.21 nM, the koff was found to be 0.000383 s⁻¹ and the on-rate constant (kon) amounted to 1.82e+06 M⁻¹ s⁻¹.

B6: anti-IL-6 antibody, heavy chain T63W, G66D / light chain WT (antibody, human IgG1, V domains shown)
VH: EVQLVESGGGLVQPGGSLRLSCAASGFTFSPFAMSWVRQAPGKGLEWVAKISPGGSWTYYSDWVTDRFTFSLDTSKSTAYLQMNSLRAEDTAVYYCARQLWGYYALDIWGQGTLVTVSS
VL: DIQLTQSPSSLSASVGDRVTITCSASISVSYMYWYQQKPGKAPKLLIYDMSNLASGVPSRFSGSGSGTDFTLTISSLQPEDFATYYCMQWSGYPYTFGQGTKVEIK
notes: as for B1
B6 gave an equilibrium dissociation constant (Kd) of 0.251 nM, a koff of 0.000427 s⁻¹ and a kon of 1.7e+06 M⁻¹ s⁻¹.

B7: anti-IL-6 antibody, heavy chain T65G, G66D / light chain WT (antibody, human IgG1, V domains shown)
VH: EVQLVESGGGLVQPGGSLRLSCAASGFTFSPFAMSWVRQAPGKGLEWVAKISPGGSWTYYSDTVGDRFTFSLDTSKSTAYLQMNSLRAEDTAVYYCARQLWGYYALDIWGQGTLVTVSS
VL: DIQLTQSPSSLSASVGDRVTITCSASISVSYMYWYQQKPGKAPKLLIYDMSNLASGVPSRFSGSGSGTDFTLTISSLQPEDFATYYCMQWSGYPYTFGQGTKVEIK
notes: as for B1
B7 had a Kd of 0.123 nM, a koff of 0.000218 s⁻¹ and a kon of 1.77e+06 M⁻¹ s⁻¹.

B8: anti-IL-6 antibody, heavy chain T65L, G66D / light chain WT (antibody, human IgG1, V domains shown)
VH: EVQLVESGGGLVQPGGSLRLSCAASGFTFSPFAMSWVRQAPGKGLEWVAKISPGGSWTYYSDTVLDRFTFSLDTSKSTAYLQMNSLRAEDTAVYYCARQLWGYYALDIWGQGTLVTVSS
VL: DIQLTQSPSSLSASVGDRVTITCSASISVSYMYWYQQKPGKAPKLLIYDMSNLASGVPSRFSGSGSGTDFTLTISSLQPEDFATYYCMQWSGYPYTFGQGTKVEIK
notes: as for B1
The molecule B8 yielded a Kd of 0.212 nM, a koff of 0.000375 s⁻¹ and a kon of 1.77e+06 M⁻¹ s⁻¹.

B9: anti-IL-6 antibody, heavy chain T65W, G66D / light chain WT (antibody, human IgG1, V domains shown)
VH: EVQLVESGGGLVQPGGSLRLSCAASGFTFSPFAMSWVRQAPGKGLEWVAKISPGGSWTYYSDTVWDRFTFSLDTSKSTAYLQMNSLRAEDTAVYYCARQLWGYYALDIWGQGTLVTVSS
VL: DIQLTQSPSSLSASVGDRVTITCSASISVSYMYWYQQKPGKAPKLLIYDMSNLASGVPSRFSGSGSGTDFTLTISSLQPEDFATYYCMQWSGYPYTFGQGTKVEIK
notes: as for B1
Turning to B9, binding was put at a Kd of 0.226 nM, the koff worked out at 0.00037 s⁻¹ and the kon worked out at 1.64e+06 M⁻¹ s⁻¹.

B10: anti-IL-6 antibody, heavy chain T65V, G66D / light chain WT (antibody, human IgG1, V domains shown)
VH: EVQLVESGGGLVQPGGSLRLSCAASGFTFSPFAMSWVRQAPGKGLEWVAKISPGGSWTYYSDTVVDRFTFSLDTSKSTAYLQMNSLRAEDTAVYYCARQLWGYYALDIWGQGTLVTVSS
VL: DIQLTQSPSSLSASVGDRVTITCSASISVSYMYWYQQKPGKAPKLLIYDMSNLASGVPSRFSGSGSGTDFTLTISSLQPEDFATYYCMQWSGYPYTFGQGTKVEIK
notes: as for B1
As to B10, the Kd was 0.175 nM, the koff came to 0.000504 s⁻¹ and the kon is 2.88e+06 M⁻¹ s⁻¹.

B11: anti-IL-6 antibody, heavy chain T63V, G66D / light chain WT (antibody, human IgG1, V domains shown)
VH: EVQLVESGGGLVQPGGSLRLSCAASGFTFSPFAMSWVRQAPGKGLEWVAKISPGGSWTYYSDVVTDRFTFSLDTSKSTAYLQMNSLRAEDTAVYYCARQLWGYYALDIWGQGTLVTVSS
VL: DIQLTQSPSSLSASVGDRVTITCSASISVSYMYWYQQKPGKAPKLLIYDMSNLASGVPSRFSGSGSGTDFTLTISSLQPEDFATYYCMQWSGYPYTFGQGTKVEIK
notes: as for B1
In turn, B11 displayed a Kd of 0.217 nM, a koff of 0.000399 s⁻¹ and an on-rate constant (kon) of 1.84e+06 M⁻¹ s⁻¹.

B12: anti-IL-6 antibody, heavy chain T65P, G66D / light chain WT (antibody, human IgG1, V domains shown)
VH: EVQLVESGGGLVQPGGSLRLSCAASGFTFSPFAMSWVRQAPGKGLEWVAKISPGGSWTYYSDTVPDRFTFSLDTSKSTAYLQMNSLRAEDTAVYYCARQLWGYYALDIWGQGTLVTVSS
VL: DIQLTQSPSSLSASVGDRVTITCSASISVSYMYWYQQKPGKAPKLLIYDMSNLASGVPSRFSGSGSGTDFTLTISSLQPEDFATYYCMQWSGYPYTFGQGTKVEIK
notes: as for B1
The molecule B12 registered a Kd of 0.369 nM, a koff of 0.000568 s⁻¹ and a kon of 1.54e+06 M⁻¹ s⁻¹.

B13: anti-IL-6 antibody, heavy chain T65D, G66D / light chain WT (antibody, human IgG1, V domains shown)
VH: EVQLVESGGGLVQPGGSLRLSCAASGFTFSPFAMSWVRQAPGKGLEWVAKISPGGSWTYYSDTVDDRFTFSLDTSKSTAYLQMNSLRAEDTAVYYCARQLWGYYALDIWGQGTLVTVSS
VL: DIQLTQSPSSLSASVGDRVTITCSASISVSYMYWYQQKPGKAPKLLIYDMSNLASGVPSRFSGSGSGTDFTLTISSLQPEDFATYYCMQWSGYPYTFGQGTKVEIK
notes: as for B1
For the molecule B13, the Kd stood at 0.203 nM, the dissociation rate constant (koff) is 0.000442 s⁻¹ and the on-rate (kon) came to 2.18e+06 M⁻¹ s⁻¹.

B14: anti-IL-6 antibody, heavy chain T65R, G66D / light chain WT (antibody, human IgG1, V domains shown)
VH: EVQLVESGGGLVQPGGSLRLSCAASGFTFSPFAMSWVRQAPGKGLEWVAKISPGGSWTYYSDTVRDRFTFSLDTSKSTAYLQMNSLRAEDTAVYYCARQLWGYYALDIWGQGTLVTVSS
VL: DIQLTQSPSSLSASVGDRVTITCSASISVSYMYWYQQKPGKAPKLLIYDMSNLASGVPSRFSGSGSGTDFTLTISSLQPEDFATYYCMQWSGYPYTFGQGTKVEIK
notes: as for B1
Molecule B14 yielded a Kd of 0.222 nM, a koff of 0.000444 s⁻¹ and an association rate constant (kon) of 2e+06 M⁻¹ s⁻¹.

B15: anti-IL-6 antibody, heavy chain T63Y, G66D / light chain WT (antibody, human IgG1, V domains shown)
VH: EVQLVESGGGLVQPGGSLRLSCAASGFTFSPFAMSWVRQAPGKGLEWVAKISPGGSWTYYSDYVTDRFTFSLDTSKSTAYLQMNSLRAEDTAVYYCARQLWGYYALDIWGQGTLVTVSS
VL: DIQLTQSPSSLSASVGDRVTITCSASISVSYMYWYQQKPGKAPKLLIYDMSNLASGVPSRFSGSGSGTDFTLTISSLQPEDFATYYCMQWSGYPYTFGQGTKVEIK
notes: as for B1
Molecule B15 had a Kd of 0.21 nM, a koff of 0.000383 s⁻¹ and a kon of 1.82e+06 M⁻¹ s⁻¹.

B16: anti-IL-6 antibody, heavy chain T65F, G66D / light chain WT (antibody, human IgG1, V domains shown)
VH: EVQLVESGGGLVQPGGSLRLSCAASGFTFSPFAMSWVRQAPGKGLEWVAKISPGGSWTYYSDTVFDRFTFSLDTSKSTAYLQMNSLRAEDTAVYYCARQLWGYYALDIWGQGTLVTVSS
VL: DIQLTQSPSSLSASVGDRVTITCSASISVSYMYWYQQKPGKAPKLLIYDMSNLASGVPSRFSGSGSGTDFTLTISSLQPEDFATYYCMQWSGYPYTFGQGTKVEIK
notes: as for B1
B16: binding was characterised by a dissociation constant (Kd) of 0.223 nM, the koff was 0.000348 s⁻¹ and the kon is 1.56e+06 M⁻¹ s⁻¹.

B17: anti-IL-6 antibody, heavy chain T65E, G66D / light chain WT (antibody, human IgG1, V domains shown)
VH: EVQLVESGGGLVQPGGSLRLSCAASGFTFSPFAMSWVRQAPGKGLEWVAKISPGGSWTYYSDTVEDRFTFSLDTSKSTAYLQMNSLRAEDTAVYYCARQLWGYYALDIWGQGTLVTVSS
VL: DIQLTQSPSSLSASVGDRVTITCSASISVSYMYWYQQKPGKAPKLLIYDMSNLASGVPSRFSGSGSGTDFTLTISSLQPEDFATYYCMQWSGYPYTFGQGTKVEIK
notes: as for B1
In turn, B17 yielded a Kd of 0.194 nM, a koff of 0.000427 s⁻¹ and a kon of 2.2e+06 M⁻¹ s⁻¹.
